Our source for the response values is article PMC6104945 (2018).

First the molecules themselves.
B1: NHBA_(312-427) (Neisserial heparin binding antigen, peptide 20, residues M312-D427) [Neisseria meningitidis (strain 2996)] / Fab 5H2 (Fab derived from the vaccine-elicited human monoclonal antibody 5H2) [human] (parent complex)
chain 1: MLAGTAVYNGEVLHFHTENGRPYPTRGRFAAKVDFGSKSVDGIIDSGDDLHMGTQKFKAAIDGNGFKGTWTENGGGDVSGRFYGPAGEEVAGKYSYRPTDAEKGGFGVFAGKKEQD
chain 2: not shown
chain 3: EIVMTQTPSSLSASVGDRVTITCRASQSISNYLNWYQQKPGTAPKLLTYAASSLGSGVPSRFSGSGSGTDLTLTISSLRPEDFATYYCQQSYGSPTFGQGTKLEIRRTVAAPSVFIFPPSDEQLKSGTASVVCLLNNFYPREAKVQWKVDNALQSGNSQESVTEQDSKDSTYSLSSTLTLSKADYEKHKVYACEVTHQGLSSPVTKSFNRGEC

In this assay the parent is B1. Put plainly: SPR; Fab 5H2 captured on sensor chip, NHBA312-427 mutant injected; response read at end of injection (~48 s); read off a plot.
On to chain 1 R28G, for which the response was ~30 RU. The figure for chain 1 R28A is ~2 RU; for chain 1 D49A, chain 1 T54A it is ~42 RU; for chain 1 R28G, chain 1 K56A it is ~5 RU. The value for chain 1 E11A, chain 1 E114A was ~51 RU; that for chain 1 K56A was ~58 RU. The figure for chain 1 R28A, chain 1 K56A is ~3 RU.
